Numbered stars: 1 amine (or outer) side, 2 acyl side, 3 side chain; on linkers, the order of the positions; unused ones are H or OH. Suc = O=C(CCC(=O)[*:2])[*:1]
Molecular target: neurexins (NXs) located on the plasma membrane of INS-1E cells (rat)
Test: cell-based or functional assay

{PEG2000-Suc}-QQGEFLNYD-NH2 (also: dimer of two HSA-28 monomers bridged via PEG2000) was tested, and the “EC50 of the increase of GSIS in INS-1E cells” value was 32 µM.
